This is an account of results in PMC8273886, “Design of a Stable Cyclic Peptide Analgesic Derived from Sunflower Seeds that Targets the κ-Opioid Receptor for the Treatment of Chronic Abdominal Pain” (Journal of Medicinal Chemistry, 2021).

Bridge positions count the residues as written; N and C are the ends. Square brackets hold non-standard residues; d marks the D form. dNle = CCCC[C@@H](N)C(=O)O Where only a bound is given, the exact number is not on record here.

The chains are these.
B1: helianorphin-19 (peptide)
peptide: cyclo(CYGGFLRRCIRPKLK)
modifications: disulfide 1-9 (inferred)
notes: dyn A 1–13 divided into two fragments (YGGFLRR and IRPKLK) placed in the two loops of the SFTI-1 scaffold; source: synthetic peptide (Fmoc chemistry, backbone cyclised, oxidised, RP-HPLC purified)
B2: helianorphin-7 (peptide)
peptide: cyclo(CTASIPPICYGGFLR)
modifications: disulfide 1-9 (inferred)
notes: SFTI-1 scaffold (K replaced with A) with YGGFL grafted after the second Cys; source: synthetic peptide (Fmoc chemistry, backbone cyclised, oxidised, RP-HPLC purified)
B3: helianorphin-11 (peptide)
peptide: cyclo(CTASIPPIC[dF][dF][dL][dK]R)
modifications: disulfide 1-9 (inferred)
notes: source: synthetic peptide (Fmoc chemistry, backbone cyclised, oxidised, RP-HPLC purified)
B4: helianorphin-10 (peptide)
peptide: cyclo(CT[dF][dF][dL][dK]PICFPDGR)
modifications: disulfide 1-9 (inferred)
notes: as for B3
B5: helianorphin-8 (peptide)
peptide: cyclo(CTYGGFPICFPDGR)
modifications: disulfide 1-9 (inferred)
notes: SFTI-1 scaffold with dyn A 1–4 (YGGF) grafted after CT; source: synthetic peptide (Fmoc chemistry, backbone cyclised, oxidised, RP-HPLC purified)
B6: helianorphin-5 (peptide)
peptide: cyclo(CYGGFLRICFPDGR)
modifications: disulfide 1-9 (inferred)
notes: SFTI-1 scaffold with dyn A 1–6 (YGGFLR) grafted after the first Cys; source: synthetic peptide (Fmoc chemistry, backbone cyclised, oxidised, RP-HPLC purified)
B7: helianorphin-9 (peptide)
peptide: cyclo(CTASIPPICYGGFR)
modifications: disulfide 1-9 (inferred)
notes: SFTI-1 scaffold (K replaced with A) with dyn A 1–4 (YGGF) grafted after the second Cys; source: synthetic peptide (Fmoc chemistry, backbone cyclised, oxidised, RP-HPLC purified)
B8: helianorphin-6 (peptide)
peptide: cyclo(CTYGGFLRCFPDGR)
modifications: disulfide 1-9 (inferred)
notes: SFTI-1 scaffold with dyn A 1–6 (YGGFLR) grafted after CT; source: synthetic peptide (Fmoc chemistry, backbone cyclised, oxidised, RP-HPLC purified)
B9: helianorphin-13 (peptide)
chain: cyclo(CTASIPPIC[dF][dF][dNle][dR]R)
modifications: disulfide 1-9 (inferred)
B10: helianorphin-4 (peptide)
peptide: cyclo(CTKSIPPICYGGFLRRI)
modifications: disulfide 1-9 (inferred)
notes: as for B3
B11: helianorphin-3 (peptide)
peptide: cyclo(CYGGFLRRICFPDGR)
modifications: disulfide 1-10 (inferred)
notes: as for B3
B12: helianorphin-2 (peptide)
peptide: cyclo(CTKSIPPICYGGFLRRIRPKLK)
modifications: disulfide 1-9 (inferred)
notes: as for B3
B13: helianorphin-18 (peptide)
peptide: cyclo(CTYGGFLRCRIRPKLK)
modifications: disulfide 1-9 (inferred)
notes: dyn A 1–13 divided into two fragments (YGGFLR and RIRPKLK) placed in the two loops of the SFTI-1 scaffold; source: synthetic peptide (Fmoc chemistry, backbone cyclised, oxidised, RP-HPLC purified)
B14: helianorphin-12 (peptide)
chain: cyclo(CT[dF][dF][dNle][dR]PICFPDGR)
modifications: disulfide 1-9 (inferred)
B15: helianorphin-1 (peptide)
peptide: cyclo(CYGGFLRRIRPKLKCFPDGR)
modifications: disulfide 1-15 (inferred)
B16: sunflower trypsin inhibitor-1 (SFTI-1) (peptide)
peptide: cyclo(CTKSIPPICFPDGR)
modifications: disulfide 1-9 (inferred)
notes: SFTI-1, 14-residue cyclic peptide from the seeds of sunflower (Helianthus annuus); The methods say that all peptides were synthesised; source: synthetic peptide (Fmoc chemistry, backbone cyclised, oxidised, RP-HPLC purified)

For one test, the target named is T1, mouse δ-opioid receptor (DOR) (mouse, UniProt P32300 1-372).
T1 construct: δ-opioid receptor, mouse; the construct is not described; source: HEK293, stably expressing, membrane preparations
Kind of test: radioligand binding; competition against [3H]-diprenorphine on membranes of HEK293 cells stably expressing the mouse MOR (50 μg) or DOR (20 μg); 50 mM Tris–HCl pH 7.4, 10 mM MgCl2, 0.1% BSA; 1 h at 37 °C. Conditions: one partner purified.
On to B1, for which the Ki is > 10000 nM.

A further test addresses T2, mouse μ-opioid receptor (MOR) (mouse, UniProt P42866 1-398).
T2 construct: μ-opioid receptor, mouse; the construct is not described; source: HEK293, stably expressing, membrane preparations
Described as above. Conditions: one partner purified.
Regarding B1, the Ki was > 10000 nM.

Another test deals with T3, mouse κ-opioid receptor (KOR) tagged with EGFP (mouse, UniProt P33534 1-380).
T3 construct: κ-opioid receptor, mouse; cloned into the pEGFP-N1 vector with BamHI and HindIII; read as EGFP at the receptor's C-terminus; also called mouse KOR; KOR-EGFP; source: HEK293, stably expressing (membrane preparations; whole cells for cAMP); HEK293, transiently transfected (BRET); not shown: EGFP, C-terminal, kept
Kind of test: radioligand binding; two-point displacement: 1 nM [3H]-diprenorphine with or without 10 μM or 100 nM peptide on membranes of HEK293 cells stably expressing the mouse KOR. As to conditions: one partner purified.
For B2, the inhibitory constant (Ki) was > 10000 nM.

For B3, the Ki is > 10000 nM.

For B4, the inhibition constant Ki was > 10000 nM.

Regarding B5, the Ki was > 10000 nM.

Consider B6, for which the Ki is > 10000 nM.

As for B7, the Ki was > 10000 nM.

For B8, the inhibition constant Ki was > 10000 nM.

Take B9: the Ki is > 10000 nM.

In another test the target is T3, mouse κ-opioid receptor (KOR) tagged …. Nature of the test: radioligand binding; concentration-dependent competition against 1 nM [3H]-diprenorphine on membranes (7 μg/assay) of HEK293 cells stably expressing the mouse KOR; 50 mM Tris–HCl pH 7.4, 10 mM MgCl2, 0.1% BSA; 1 h at 37 °C; Ki from IC50 by Cheng and Prusoff. Conditions: one partner purified.
In the case of B10, the affinity corresponds to a Ki of 2500 nM.

B11: the inhibition constant (Ki) came to 3200 nM.

In turn, B12 registered an inhibition constant Ki of 97 nM.

B13 displayed a Ki of 650 nM.

B1 yielded an inhibition constant Ki of 21 nM.

The target is the same in a further test. Kind of test: cell-based or functional assay.
Settings: not given
B10: the “cAMP inhibition in HEK293 cells stably expressing the mouse KOR, EC50” value (from here on “cAMP inhibition … EC50”) is 4700 nM and the “cAMP inhibition in HEK293 cells stably expressing the mouse KOR, Emax” value (“cAMP inhibition … Emax” for short) stood at 87.8%.

Consider B11, for which the “cAMP inhibition … EC50” value worked out at 1400 nM and the “cAMP inhibition … Emax” value worked out at 85.1%.

In the case of B14, the “cAMP inhibition … Emax” value turned out to be 117%.

Turning to B12, the “cAMP inhibition … EC50” value stood at 1300 nM and the “cAMP inhibition … Emax” value is 102%.

On to B1, for which the “cAMP inhibition … EC50” value came to 45 nM and the “cAMP inhibition … Emax” value worked out at 108%.

Consider B15, for which the “cAMP inhibition … Emax” value stood at 106%.

The next test shares this target. Nature of the test: cell-based or functional assay.
Settings: not given
This is another data set of the same source.
Turning to B1, the “β-arrestin-2 recruitment to the KOR (BRET, HEK293 cells with mouse KOR-EGFP and β-arrestin-2-nano-luciferase), EC50” value worked out at 1400 nM.

The target is the same in a further test. Kind of test: radioligand binding; three concentrations of SFTI-1 (μM), displacement of 1 nM [3H]-diprenorphine on membranes of HEK293 cells stably expressing the mouse KOR. As to conditions: one partner purified.
For B16, the inhibition constant (Ki) was > 30000 nM.

By Ki is commonly meant a dissociation constant, usually derived from enzyme kinetics or from competition with a known ligand. Higher therefore signals weaker binding.
